Molecular target: Pea2p-L409-ProA (pea2-M409L; S288C-encoded Pea2p variant in the Σ1278b background) (S. cerevisiae (S288C allele recreated in strain Σ1278b)) (UniProt P40091)
Test: co-IP; IgG pull-down with Pea2p-ProA as bait from lysates of Σ1278b cells; HA-Spa2p from a copper-inducible plasmid; lysis buffer 50 mM Tris-HCl pH 7.5, 150 mM NaCl, 2 mM EDTA, 0.5% Triton X-100; 2 hr at 4°C; Western blot (anti-HA, anti-Protein A); levels normalized against total cell lysate

Sequence of UniProt P40091 (P40091 whole entry, stated change not applied): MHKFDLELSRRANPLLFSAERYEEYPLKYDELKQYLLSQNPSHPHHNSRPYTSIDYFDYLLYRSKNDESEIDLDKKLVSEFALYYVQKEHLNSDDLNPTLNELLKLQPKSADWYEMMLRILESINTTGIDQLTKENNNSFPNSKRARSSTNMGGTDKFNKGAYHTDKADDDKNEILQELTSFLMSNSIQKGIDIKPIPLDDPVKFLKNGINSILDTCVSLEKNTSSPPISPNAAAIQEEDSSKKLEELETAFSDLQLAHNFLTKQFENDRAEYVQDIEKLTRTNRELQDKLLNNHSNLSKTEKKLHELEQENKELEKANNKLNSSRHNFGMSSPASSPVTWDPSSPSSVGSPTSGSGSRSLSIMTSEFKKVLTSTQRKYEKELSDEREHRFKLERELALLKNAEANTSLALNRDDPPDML
Sequence of HA-Spa2p (P23201 whole entry): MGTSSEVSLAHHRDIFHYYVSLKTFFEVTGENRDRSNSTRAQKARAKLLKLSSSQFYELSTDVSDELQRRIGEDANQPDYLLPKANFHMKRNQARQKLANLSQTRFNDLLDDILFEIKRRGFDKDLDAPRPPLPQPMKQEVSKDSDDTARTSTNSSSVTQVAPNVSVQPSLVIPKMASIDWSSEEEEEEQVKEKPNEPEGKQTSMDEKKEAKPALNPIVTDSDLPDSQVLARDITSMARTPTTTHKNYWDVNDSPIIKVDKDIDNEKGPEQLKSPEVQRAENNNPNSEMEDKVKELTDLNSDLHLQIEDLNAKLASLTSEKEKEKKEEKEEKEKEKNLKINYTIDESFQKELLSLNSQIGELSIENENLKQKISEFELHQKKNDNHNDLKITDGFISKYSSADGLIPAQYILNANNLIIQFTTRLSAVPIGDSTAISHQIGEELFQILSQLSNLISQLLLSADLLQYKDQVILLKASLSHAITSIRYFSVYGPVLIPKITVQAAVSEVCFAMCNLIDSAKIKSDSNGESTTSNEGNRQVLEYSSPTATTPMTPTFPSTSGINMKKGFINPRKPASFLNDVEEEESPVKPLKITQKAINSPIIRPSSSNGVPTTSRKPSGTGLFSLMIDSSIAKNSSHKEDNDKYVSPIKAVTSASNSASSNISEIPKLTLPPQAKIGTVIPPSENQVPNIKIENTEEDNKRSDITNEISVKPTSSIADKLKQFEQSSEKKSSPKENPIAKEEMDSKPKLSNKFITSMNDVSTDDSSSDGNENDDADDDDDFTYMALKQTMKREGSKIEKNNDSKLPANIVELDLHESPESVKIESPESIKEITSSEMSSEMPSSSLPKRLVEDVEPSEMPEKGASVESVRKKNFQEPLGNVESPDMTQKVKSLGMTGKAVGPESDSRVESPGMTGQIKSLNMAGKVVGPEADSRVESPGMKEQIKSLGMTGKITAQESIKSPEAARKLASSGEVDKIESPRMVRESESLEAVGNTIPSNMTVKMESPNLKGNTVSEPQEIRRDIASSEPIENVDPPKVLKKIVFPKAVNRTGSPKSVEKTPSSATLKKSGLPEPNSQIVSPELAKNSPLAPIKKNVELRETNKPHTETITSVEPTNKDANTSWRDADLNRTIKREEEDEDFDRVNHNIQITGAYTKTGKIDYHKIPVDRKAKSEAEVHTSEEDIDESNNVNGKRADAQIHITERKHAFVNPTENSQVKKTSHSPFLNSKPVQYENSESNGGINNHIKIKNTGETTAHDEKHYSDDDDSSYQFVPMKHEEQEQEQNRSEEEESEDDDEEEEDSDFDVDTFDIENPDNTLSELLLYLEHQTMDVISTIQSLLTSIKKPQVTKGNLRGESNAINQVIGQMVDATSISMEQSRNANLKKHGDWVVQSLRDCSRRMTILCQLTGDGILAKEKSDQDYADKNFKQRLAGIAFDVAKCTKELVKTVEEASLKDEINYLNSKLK

amount of Spa2p recovered relative to Pea2p-M409: 60%
Substance: HA-Spa2p (from UniProt P23201 1-1466) (natural protein)

From article PMC4140661
